How the values were obtained:
Primary murine B cells = experiment: Microarray analysis of primary murine B cells stimulated with LPS or CD40L; assay type: cell-based; settings: LPS 20 μg/mL, soluble CD8/CD40L chimera 300 ng/mL
Protocol: (A) Primary murine B cells were stimulated with LPS (20 μg/mL) or a soluble CD8/CD40L chimera (300 ng/mL) and RNA was collected at indicated time points and used to conduct microarray analysis. […] Expression changes: Red—Induced, Green—Repressed, Black—No Change. Selected time points were hybridized to microarrays in duplicate to ensure reproducibility.
B cell isolation, target preparation, and hybridization using Affymetrix Mu6500 microarrays were performed as described previously (Dadgostar, H., Zarnegar, B., Hoffman, A., Qin, X.-F., Truong, U., Rao, G., Baltimore, D., and Cheng, G. (2002), Proc. Natl. Acad. Sci. USA 99, 1497-1502). Differential expression data was analyzed by Affymetrix Microarray Suite 4.0 software. Average difference change values were then normalized and the genes were clustered by the uncentered correlation average linkage hierarchical clustering algorithm using Cluster. Data was then visualized as a dendogram using Treeview software (www.rana.Ibl.gov/EisenSoftware.htm).
We have conducted a series of microarray experiments to determine gene expression patterns in murine B cells in response to activating stimuli such as LPS and CD40L. […] Genes were hierarchically clustered using average difference change values derived by comparing control samples (media 4h) with samples from cells treated with indicated stimulus.

BMMs = experiment: Quantitative real-time PCR gene expression in BMMs, wild-type and IFNAR deficient (Example 2); assay type: cell-based, murine; settings: rIFN-β 10, 100, 1000 units
Protocol: Murine BMMs were stimulated with poly(I:C) (10 μg/ml) or lipid A (1 ng/ml) for the indicated times. Total RiNA was isolated and converted to cDNA for quantitative real-time PCR analysis using primers specific for IFN-β, IFI-204, IP10, IκBα, or L32. Experiments were repeated three times, and the data are presented in relative expression units on a log scale, as described in Example 2, infra.
Primary macrophage cells derived from bone marrow cells were stimulated with poly I:C (1 μg/ml) or lipid A (1 ng/ml) for the indicated times, as described in Example 2, infra.
(B) TLR3 and TLR4 mRNA levels were also assessed in cells deficient in IFNAR, and cells stimulated with rIFN-β (10, 100, and 1000 U). Experiments were repeated at least two separate times, and data are presented in relative expression units. L32 was used to normalize all samples.
Both wild-type cells and cells deficient in IFNAR were stimulated with poly I:C (1 μg/ml) or lipid A (1 ng/ml) for either 1 or 4 h. IFN-β, IP10, IFI-204, ICAM1, and L32 mRNA levels were assessed. Data are representative of three independent experiments and presented in relative expression units, as described in Example 2, infra.
Murine bone marrow-derived macrophages (BMMs) were differentiated from marrow as previously described (Doyle, S. E., S. A. Vaidya, R. O'Connell, H. Dadgostar, P. W. Dempsey, T.-T. Wu, G. Rao, R. Sun, M. E. Haberland, R. L. Modlin, and G. Cheng. 2002. IRF3 mediates a TLR3/TLR4-specific antiviral gene program. Immunity 17:251). A129 (IFNAR-1^−/−) (Muller, U., U. Steinhoff, L. F. L. Reis, S. Hemmi, J. Pavlovic, R. M. Zinkernagel, and M. Aguet. 1994. Functional role of type I and type II interferons in antiviral defense. Science 264:1918) and B6129SF2/J wild type control mice were obtained from B&K Universal Ltd. and Jackson Laboratories, respectively. C57/B6 mice were used for all experiments not involving the A129 mice (Jackson Laboratories). Specific TLR activation was achieved using F-583 (Rd mutant) E. coli lipid A for TLR4 (Sigma), CpG oligonucleotides for TLR9 (Invitrogen) and poly I:C for TLR3 (Pharmacia). For experiments employing the TIRAP/MAL inhibitory peptide (CN Biosciences), cells were pretreated for 1 hour with 20 μM peptide or DMSO alone. Cells were then stimulated with PAMPs in the presence of the inhibitory peptide. For experiments using murine rIFN-β (R&D Systems), wild-type macrophage cells were stimulated with 10, 100, or 1000 units. Viral infection and harvest was performed using MHV68 at an M.O.I. of 5 as previously described (Doyle, S. E., S. A. Vaidya, R. O'Connell, H. Dadgostar, P. W. Dempsey, T.-T. Wu, G. Rao, R. Sun, M. E. Haberland, R. L. Modlin, and G. Cheng. 2002. IRF3 mediates a TLR3/TLR4-specific antiviral gene program. Immunity 17:251).
RNA was isolated by standard guanidium isothiocyanate methods. cDNA template for quantitative realtime PCR analysis was then synthesized and PCR was performed using the iCycler thermocycler (Bio-Rad) as previously described (Doyle, S. E., S. A. Vaidya, R. O'Connell, H. Dadgostar, P. W. Dempsey, T.-T. Wu, G. Rao, R. Sun, M. E. Haberland, R. L. Modlin, and G. Cheng. 2002. IRF3 mediates a TLR3/TLR4-specific antiviral gene program. Immunity 17:251). IFN-βIP10, IκBα and IFI-204 primers were the same as those previously described (Doyle, S. E., S. A. Vaidya, R. O'Connell, H. Dadgostar, P. W. Dempsey, T.-T. Wu, G. Rao, R. Sun, M. E. Haberland, R. L. Modlin, and G. Cheng. 2002. IRF3 mediates a TLR3/TLR4-specific antiviral gene program. Immunity 17:251). For other genes, the following primers were used: […]

| Molecule | upregulation of genes previously characterized as interferon-responsive (Primary murine B cells) | TLR4 mRNA levels (BMMs; wild type cells) | TLR3 mRNA (BMMs; wild-type primary macrophages) |
| --- | --- | --- | --- |
| CD40L (protein, UniProt P29965 113-261, looked up) CD40 ligand, soluble form: MQKGDQNPQIAAHVISEASSKTTSVLQWAEKGYYTMSNNLVTLENGKQLTVKRQGLYYIYAQVTFCSNREASSQAPFIASLCLKSPGRFERILLRAANTHSSAKPCGQQSIHLGGVFELQPGASVFVNVTDPSQVSHGTGFTSFGLLKL | not |  |  |
| recombinant IFN-β: murine rIFN-β (R&D Systems) (protein, UniProt P01575 22-182, looked up) Interferon beta: INYKQLQLQERTNIRKCQELLEQLNGKINLTYRADFKIPMEMTEKMQKSYTAFAIQEMLQNVFLVFRNNFSSTGWNETIVVRLLDELHQQTVFLKTVLEEKQEERLTWEMSSTALHLKSYYWRVQRYLKLMKYNSYAWMVVRAEIFRNFLIIRRLTRNFQN |  | relatively unaltered | dose dependent upregulation |

From US20060057104A1, “Methods for stimulating tlr irf3 pathways for inducing anti-microbial, anti-inflammatory and anticancer responses” (THE Regents of the University of California Office of the …, priority 2002, published 2006)
